Results taken from the supplement of paper PMC7877785.
± gives the uncertainty stated by the source.

Assay: self-splicing fitness, log relative to wild type (ln ratio); higher = more splicing; Tetrahymena group I intron in knt gene, E. coli kanamycin selection, DiMSum; sequences stand for … in CUCUCU…GGAGGGAAAAGUUAUCAGGCAUGCACCUGGUAGCUAGUCUUUAAACCAAUAGAUUGCAUCGGUUUAAAAGGCAAGACCGUCAAAUUGCGGGAAAGGGGUCAACAGCCGUUCAGUACCAAGUCUCAGGGGAAACUUUGAGAUGGCCUUGCAAAGGGUAUGGUAAUAAGCUGACGGACAUGGUCCUAACCACGCAGCCAAGUCCUAAGUCAACAGAUCUUCUGUUGAUAUGGAUGCAGUUCACAGACUAAAUGUCGGUCGGGGAAGAUGUAUUCUUCUCAUAAGAUAUAGUCGGACCUCUCCUUAAUGGGAGCUAGCGGAUGAAGUGAUGCAACACUGGAGCCGCUGGGAACUAAUUUGUAUGCGAAAGUAUAUUGAUUAGUUUUGGAGUACUCGUGGUCG
Method in brief: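 Library with all eight P1ex-region intron nucleotides randomised, intron inside the knt kanamycin-resistance gene on pET-22b(+), in E. coli BL21(DE3). Cells grew overnight at 37°C or 30°C on LB agar with or without 25 μg/mL kanamycin (plus 100 μg/mL carbenicillin, 50 μM IPTG, 0.2% rhamnose), in six replicate transformations. Pooled colonies were amplicon-sequenced on Illumina HiSeq 2500. DiMSum fitness is the error-weighted combination of wild-type-normalised replicate fold changes, kanamycin versus none.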

CCACAGCAAUAUUACGGGUU
self-splicing fitness (ln) (30 °C): -3.68 ± 0.16 | self-splicing fitness (ln) (37 °C): -2.58 ± 0.21

GUUUAGCAAUAUUACGAGCC
self-splicing fitness (ln) (30 °C): -3.21 ± 0.21 | self-splicing fitness (ln) (37 °C): -1.56 ± 0.2

GCCCAGCAAUAUUACGCUAU
self-splicing fitness (ln) (30 °C): -0.826 ± 0.082 | self-splicing fitness (ln) (37 °C): -0.309 ± 0.086

CCUAAGCAAUAUUACGUGAU
self-splicing fitness (ln) (30 °C): -4.46 ± 0.23 | self-splicing fitness (ln) (37 °C): -2.71 ± 0.21

UGAGAGCAAUAUUACGGGCA
self-splicing fitness (ln) (30 °C): -0.578 ± 0.12 | self-splicing fitness (ln) (37 °C): -0.806 ± 0.17

ACCAAGCAAUAUUACGCAUU
self-splicing fitness (ln) (30 °C): -2.81 ± 0.085 | self-splicing fitness (ln) (37 °C): -1.26 ± 0.077

UUGAAGCAAUAUUACGGGAA
self-splicing fitness (ln) (30 °C): -0.195 ± 0.11 | self-splicing fitness (ln) (37 °C): -0.634 ± 0.15

AGCUAGCAAUAUUACGACGC
self-splicing fitness (ln) (30 °C): -1.63 ± 0.098 | self-splicing fitness (ln) (37 °C): -0.406 ± 0.13

UAGAAGCAAUAUUACGCAGC
self-splicing fitness (ln) (30 °C): -4.25 ± 0.46 | self-splicing fitness (ln) (37 °C): -2.93 ± 0.31

CAGGAGCAAUAUUACGAAUA
self-splicing fitness (ln) (30 °C): -3.47 ± 0.29 | self-splicing fitness (ln) (37 °C): -1.49 ± 0.24

UUGAAGCAAUAUUACGGUGA
self-splicing fitness (ln) (30 °C): -0.275 ± 0.08 | self-splicing fitness (ln) (37 °C): -0.469 ± 0.09

AACAAGCAAUAUUACGGCGA
self-splicing fitness (ln) (30 °C): -0.0322 ± 0.064 | self-splicing fitness (ln) (37 °C): -0.329 ± 0.071

GUAUAGCAAUAUUACGGCGG
self-splicing fitness (ln) (37 °C): -2.1 ± 0.38

CAAGAGCAAUAUUACGUAGU
self-splicing fitness (ln) (30 °C): -3.51 ± 0.2 | self-splicing fitness (ln) (37 °C): -1.78 ± 0.19

UUGGAGCAAUAUUACGCCCU
self-splicing fitness (ln) (37 °C): -1.44 ± 0.46

GUAAAGCAAUAUUACGAAAC
self-splicing fitness (ln) (30 °C): -1.83 ± 0.13 | self-splicing fitness (ln) (37 °C): -0.6 ± 0.13

CAUGAGCAAUAUUACGGAGA
self-splicing fitness (ln) (30 °C): -3.91 ± 0.35 | self-splicing fitness (ln) (37 °C): -2.58 ± 0.48

UACUAGCAAUAUUACGUGAC
self-splicing fitness (ln) (30 °C): -2.29 ± 0.13 | self-splicing fitness (ln) (37 °C): -1.93 ± 0.26

CUCUAGCAAUAUUACGAACC
self-splicing fitness (ln) (30 °C): -3.06 ± 0.37

GUUAAGCAAUAUUACGUGUC
self-splicing fitness (ln) (30 °C): -2.09 ± 0.089 | self-splicing fitness (ln) (37 °C): -0.788 ± 0.11

AGAGAGCAAUAUUACGACGG
self-splicing fitness (ln) (30 °C): -3.4 ± 0.28

CUCUAGCAAUAUUACGAGCA
self-splicing fitness (ln) (30 °C): -3.95 ± 0.33 | self-splicing fitness (ln) (37 °C): -3.04 ± 0.23

GUAAAGCAAUAUUACGGCCG
self-splicing fitness (ln) (30 °C): -0.257 ± 0.087 | self-splicing fitness (ln) (37 °C): 0.625 ± 0.12

ACGAAGCAAUAUUACGGACA
self-splicing fitness (ln) (30 °C): -0.643 ± 0.14 | self-splicing fitness (ln) (37 °C): -0.915 ± 0.15

UAUCAGCAAUAUUACGGUAC
self-splicing fitness (ln) (30 °C): -3.28 ± 0.26 | self-splicing fitness (ln) (37 °C): -2.54 ± 0.3

GGAAAGCAAUAUUACGUGAU
self-splicing fitness (ln) (30 °C): -2.79 ± 0.086 | self-splicing fitness (ln) (37 °C): -1.76 ± 0.089

AUCUAGCAAUAUUACGCCUC
self-splicing fitness (ln) (30 °C): -1.62 ± 0.19 | self-splicing fitness (ln) (37 °C): -1.33 ± 0.34

AUAGAGCAAUAUUACGGCGA
self-splicing fitness (ln) (30 °C): -0.73 ± 0.059 | self-splicing fitness (ln) (37 °C): 0.0474 ± 0.076

GUCAAGCAAUAUUACGGACA
self-splicing fitness (ln) (30 °C): -3.06 ± 0.39 | self-splicing fitness (ln) (37 °C): -2.09 ± 0.19

GCUCAGCAAUAUUACGAUUC
self-splicing fitness (ln) (30 °C): -0.0882 ± 0.054 | self-splicing fitness (ln) (37 °C): 0.832 ± 0.075

CACUAGCAAUAUUACGUAUC
self-splicing fitness (ln) (30 °C): -3.43 ± 0.25 | self-splicing fitness (ln) (37 °C): -2.27 ± 0.19

CAGAAGCAAUAUUACGCAUU
self-splicing fitness (ln) (30 °C): -4.37 ± 0.27 | self-splicing fitness (ln) (37 °C): -2.92 ± 0.2

UCAGAGCAAUAUUACGAGAG
self-splicing fitness (ln) (30 °C): -3.72 ± 0.27 | self-splicing fitness (ln) (37 °C): -3.27 ± 0.42

CGAAAGCAAUAUUACGUACA
self-splicing fitness (ln) (30 °C): -1.25 ± 0.14 | self-splicing fitness (ln) (37 °C): -1.23 ± 0.15
